Laboratory results taken from paper PMC7659708, “Genetically encoded live-cell sensor for tyrosinated microtubules” (The Journal of Cell Biology, 2020).
Several values for one entry are separate records, joined by “and”; a condition that tells them apart may be missing. Identical values can stand only once. Where no end group is shown, it is not given here. The star is where a group is joined. Biotin = O=C1N[C@H]2[C@H](CS[C@H]2CCCCC(=O)*)N1

T1: biotin-TUBA1A 440-451 (human)
T1 construct: C-terminal tail of human alpha-tubulin TUBA1A, amino acids 440-451, tyrosinated; source: synthetic peptide (Thermo Fisher Scientific)
T1 peptide: Biotin-VEGEGEEEGEEY

T2: biotin-TUBA1A 440-451-[E]445 (human)
T2 construct: C-terminal tail of human alpha-tubulin TUBA1A, amino acids 440-451, printed VEGEG[E]EEGEEY with [E] the monoglutamylated residue 445; source: synthetic peptide (Thermo Fisher Scientific)
T2 peptide: Biotin-VEGEGE(Glu)EEGEEY

T3: biotin-Tba-1 437-449 (C. elegans)
T3 construct: C-terminal tail of C. elegans alpha-tubulin Tba-1, amino acids 437-449; source: synthetic peptide (LifeTein)
T3 peptide: Biotin-SNEGGNEEEGEEY

T4: biotin-Tub84B 438-450 (Drosophila)
T4 construct: C-terminal tail of Drosophila alpha-tubulin Tub84B; they would span 439-450 if the last residue is 450; source: synthetic peptide (LifeTein)
T4 peptide: Biotin-SGDGEGEGAEEY

T5: biotin-TUBA1A 440-450 (human)
T5 construct: C-terminal tail of human alpha-tubulin TUBA1A, amino acids 440-450, without the terminal tyrosine (detyrosinated); source: synthetic peptide (Thermo Fisher Scientific)
T5 peptide: Biotin-VEGEGEEEGEE

T6: 13C-15N isotope-labeled A1aY1 protein (thrombin-cleaved) (13C, 15N isotope-labeled)
T6 construct: A1aY1, an SSO7D mutant selected from a combinatorial yeast display library; source: E. coli Rosetta (DE3) grown in M9 media, purified (Ni-NTA, SEC, thrombin cleavage, SEC); not shown: His6, N-terminal, cleaved
T6 chain: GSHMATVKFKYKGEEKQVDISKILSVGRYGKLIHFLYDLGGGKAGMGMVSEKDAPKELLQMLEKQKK

B1: A1aY1 binder (designed binder)
chain: MATVKFKYKGEEKQVDISKILSVGRYGKLIHFLYDLGGGKAGMGMVSEKDAPKELLQMLEKQKK
notes: A1aY1, an SSO7D mutant selected from a combinatorial yeast display library; (His6, thrombin site, A1aY1); Protein used in the SPR steady-state titrations; The results say 'without any tags'; the methods describe the stored protein as 9.3 kD, which is the size with His6 and thrombin site, and tell of thrombin cleavage only for the NMR sample; also called tyrosination sensor; source: E. coli …
B2: nonbiotinylated Hs_TUBA1A peptide (peptide)
peptide: VEGEGEEEGEEY
notes: C-terminal tail of human alpha-tubulin TUBA1A, amino acids 440-451, tyrosinated, without biotin; also called tyrosinated peptide; α-tubulin CTT peptide; source: synthetic peptide (LifeTein)

Key:
Details in all cases: both partners purified
biotin-TUBA1A 440-451 = target: T1, biotin-TUBA1A 440-451; assay: SPR; steady-state binding assay, Biacore-T200; biotinylated peptides immobilized on a streptavidin (SA) sensor chip at 100-300 response units; A1aY1 titrated from 0.031 to 200 µM; 1x HBS-P+ (10 mM Hepes, 150 mM NaCl, 0.05% surfactant P20), 30 µl/min; 1:1 binding considered, one site total fit
[1] = target: T2, biotin-TUBA1A 440-451-[E]445; assay: as above
biotin-Tba-1 437-449 = target: T3, biotin-Tba-1 437-449; assay: as above
biotin-Tub84B 438-450 = target: T4, biotin-Tub84B 438-450; assay: as above
biotin-TUBA1A 440-450 = target: T5, biotin-TUBA1A 440-450; assay: as above
[2] = target: T6, 13C-15N isotope-labeled A1aY1 protein …; assay: NMR titration; 1H-15N HSQC of 13C,15N-labeled A1aY1 with nonbiotinylated peptides added at 0.5 to 7 equivalents (Hs_TUBA1A) or 1 to 4 equivalents (Hs_TUBA1A-ΔY); 25°C

Row | Binder | Kd (biotin-TUBA1A 440-451) [µM] | Kd [1] [µM] | Kd (biotin-Tba-1 437-449) [µM] | Kd (biotin-Tub84B 438-450) | Kd (biotin-TUBA1A 440-450) [µM] | binding result [2]
1 | B1 | 1.6 ± 0.3 | 13.6 ± 4.5 | 1 ± 0.2 | 4.1 µM and 4 µM | > 60 | –
2 | B2 | – | – | – | – | – | binds
